In general, Kd refers to the equilibrium constant for the complex coming apart.

Holding throughout (assay): SPR
For orientation: Surface plasmon resonance follows binding to a sensor surface in real time, without labels.

Experiment [1] has as its target T1, FcgRIIIa V (human, UniProt P08637).
Experiment [2] deals with T2, FcgRIIa H (human, UniProt P12318).
T2 chain: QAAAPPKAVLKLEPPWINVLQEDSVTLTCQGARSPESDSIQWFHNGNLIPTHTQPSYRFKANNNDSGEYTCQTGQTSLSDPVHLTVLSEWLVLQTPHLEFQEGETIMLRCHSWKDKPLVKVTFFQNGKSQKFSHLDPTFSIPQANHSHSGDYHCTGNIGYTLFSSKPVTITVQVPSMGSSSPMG

For experiment [3], the target named is T3, FcgRIIa R (human, UniProt P12318).
T3 chain: T2 chain with H134R

Experiment [4] addresses T2, FcgRIIa H.
The target of experiment [5] is T4, FcgRIIb (human, UniProt P31994).
T4 chain: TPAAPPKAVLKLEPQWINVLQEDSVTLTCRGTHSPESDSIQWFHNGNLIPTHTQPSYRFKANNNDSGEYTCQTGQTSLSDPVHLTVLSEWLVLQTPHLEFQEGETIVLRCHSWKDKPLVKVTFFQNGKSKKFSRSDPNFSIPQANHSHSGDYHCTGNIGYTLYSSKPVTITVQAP

The target of experiment [6] is T4, FcgRIIb.
In experiment [7] the target is T1, FcgRIIIa V. This is another data set of the same source.
For experiment [8], the target named is T5, FcgRIIIa F (human, UniProt P08637).
The next experiment concerns the target T6, FcgRIa (human, UniProt P12314).
T6 chain: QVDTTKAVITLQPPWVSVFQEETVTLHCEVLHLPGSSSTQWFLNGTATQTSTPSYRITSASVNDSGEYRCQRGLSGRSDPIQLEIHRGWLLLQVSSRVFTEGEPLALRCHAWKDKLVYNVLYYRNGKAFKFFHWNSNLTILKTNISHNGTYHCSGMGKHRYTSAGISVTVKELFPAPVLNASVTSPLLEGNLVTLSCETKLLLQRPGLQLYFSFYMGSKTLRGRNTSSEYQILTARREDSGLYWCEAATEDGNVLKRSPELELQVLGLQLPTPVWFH

Experiment [9] deals with T3, FcgRIIa R.
Experiment [10] has as its target T5, FcgRIIIa F. This is another data set of the same source.
Experiment [11] addresses T5, FcgRIIIa F. The source holds these as a separate data set.
For experiment [12], the target named is T5, FcgRIIIa F. The source holds these as a separate data set.
In experiment [13] the target is T5, FcgRIIIa F. The source holds these as a separate data set.
Experiment [14] has as its target T4, FcgRIIb.
The target in experiment [15] is T5, FcgRIIIa F. The source holds these as a separate data set.

Where a chain is given by its changes, count along the chain named. Like-named read-outs stand apart in the source and are kept apart here.

T5 sequence (P08637 17-208): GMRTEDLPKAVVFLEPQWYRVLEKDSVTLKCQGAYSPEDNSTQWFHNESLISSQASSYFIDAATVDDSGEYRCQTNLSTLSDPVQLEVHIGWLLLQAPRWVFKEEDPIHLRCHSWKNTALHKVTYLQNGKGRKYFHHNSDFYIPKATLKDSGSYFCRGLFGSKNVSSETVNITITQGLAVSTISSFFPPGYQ
T1 sequence (P08637 17-208 F176V): as the sequence (P08637 17-208) above, with F160V counted along it

B1: IL6R-BP208/IL6R-L (antibody)
chain 1: QVQLQESGPGLVKPSETLSLTCAVSGHSISHDHAWSWVRQPPGEGLEWIGFISYSGITNYNPSLQGRVTISRDNSKNTLYLQMNSLRAEDTAVYYCARSLARTTAMDYWGEGTLVTVSSASTKGPSVFPLAPSSKSTSGGTAALGCLVKDYFPEPVTVSWNSGALTSGVHTFPAVLQSSGLYSLSSVVTVPSSSLGTQTYICNVNHKPSNTKVDKKVEPKSCDKTHTCPPCPAPDLLGDDSVFLFPPKPKDTLMISRTPEVTCVVVDVSDEDGEVKFNWYVDGVEVHNAKTKPREEQYNSTYRVVSVLTVLHQDWLNGKEYKCKVSNKALPRPIEKTISKAKGQPREPQVYTLPPSRDELTKNQVSLTCLVKGFYPSDIAVEWESNGQPENNYKTTPPVLDSDGSFFLYSKLTVDKSRWQQGNVFSCSVMHEALHNHYTQESLSLSP
chain 2: not shown
Take B1: the Kd with FcgRIIIa V [1] was 53000 nM; with FcgRIIa H [2], 8300 nM; with FcgRIIa R [3], 850 nM.

B2: H240-G1d/L73-k0 (antibody)
chain 1: not shown
chain 2: DIQMTQSPSSLSASVGDRVTITCRASQDIHKYIAWYQQKPGQAPRLLIQYTSTLQPGVPSRFSGSGSGTDYTFTISSLQPEDIATYYCLQYEQLRTFGGGTKVEIKRTVAAPSVFIFPPSDEQLKSGTASVVCLLNNFYPREAKVQWKVDNALQSGNSQESVTEQDSKDSTYSLSSTLTLSKADYEKHKVYACEVTHQGLSSPVTKSFNRGEC
In the case of B2, the Kd with FcgRIIa H [4] stood at 660 nM; with FcgRIIb [5] it was 6100 nM; with FcgRIIb [6], 6000 nM; in the experiment with FcgRIIIa V [7] it was 310 nM; with FcgRIIIa F [8], 1400 nM; with FcgRIa it was 0.23 nM. This molecule yielded a Kd with FcgRIIa R [9] of 880 nM.

B3: H240-afucosyl_G1d/L73-k0 (antibody)
chain 1: not shown
chain 2: B2 chain 2
With B3, the Kd came to 780 nM with FcgRIIa H [4]; 2600 nM with FcgRIIb [6]; 6.9 nM with FcgRIIIa V [7]; 78 nM with FcgRIIIa F [8]; 0.43 nM in the experiment with FcgRIa; 79 nM with FcgRIIIa F [10]. Besides, the Kd in the experiment with FcgRIIa R [9] came to 490 nM.

B4: GpH7-TA7/GpH7-TA58/GpL16-k0 (antibody)
chain 1: QVQLVQSGAEVKKPGASVTVSCKASGYTFTDYEMHWIRQPPGEGLEWIGAIDPKTGDTAYSESFQDRVTLTADKSTSTAYMELSSLTSEDTAVYYCTRFYSYTYWGQGTLVTVSSASTKGPSVFPLAPSSKSTSGGTAALGCLVKDYFPEPVTVSWNSGALTSGVHTFPAVLQSSGLYSLSSVVTVPSSSLGTQTYICNVNHKPSNTKVDKKVEPKSCDKTHTCPPCPAPEYLWGPSVFLFPPKPKDTLMISRTPEVTCVVVDVSHEDPEVKFNWYVDGVEVHNAKTKPREEQYNATYRVVSVLTVLHQDWLNGKEYKCKVSNKALPAPIEKTISKAKGQPREPQVYTLPPSRKELTKNQVSLTCLVKGFYPSDIAVEWESNGQPENNYKTTPPVLDSDGSFFLYSKLTVDKSRWQQGNVFSCSVMHEALHNRYTQKSLSLSP
chain 2: B4 chain 1 with Y232L, W234G, S237D, Y294W, A296S, A328L, I330E, K354D, R433H, K437E
chain 3: DIVMTQSPLSLPVTPGEPASISCQASESLVHSNRNTYLHWYLQKPGQSPQLLIYKVSNRFSGVPDRFSGSGSGTDFTLKISRVEAEDVGVYYCSQNTHVPPTFGQGTKVEIERTVAAPSVFIFPPSDEQLKSGTASVVCLLNNFYPREAKVQWKVDNALQSGNSQESVTEQDSKDSTYSLSSTLTLSKADYEKHKVYACEVTHQGLSSPVTKSFNRGEC
Molecule B4 yielded a Kd with FcgRIIIa F [11] of 3.3 nM.

B5: GpH7-TA7/GpH7-B78/GpL16-k0 (antibody)
chain 1: B4 chain 1
chain 2: B4 chain 1 with Y232L, W234G, S237D, A296S, A328L, I330E, K354D, R433H, K437E
chain 3: B4 chain 3
For B5, the Kd in the experiment with FcgRIIIa F [12] is 4.7 nM; in the experiment with FcgRIIIa F [13] it was 4.1 nM; with FcgRIIb [14], 1100 nM.

B6: GpH7-TA40/GpH7-B78/GpL16-k0 (antibody)
chain 1: B4 chain 1 with K332G
chain 2: B4 chain 1 with Y232L, W234G, S237D, A296S, A328L, I330E, K354D, R433H, K437E
chain 3: B4 chain 3
Regarding B6, the affinity with FcgRIIIa F [15], expressed as Kd, was 7.5 nM.

B7: GpH7-TA52/GpH7-B78/GpL16-k0 (antibody)
chain 1: B4 chain 1 with Y294W
chain 2: B4 chain 1 with Y232L, W234G, S237D, A296S, A328L, I330E, K354D, R433H, K437E
chain 3: B4 chain 3
In the experiment with FcgRIIIa F [11], B7 registered a Kd of 2.3 nM.

B8: GpH7-TA22/GpH7-B78/GpL16-k0 (antibody)
chain 1: B4 chain 1 with S237D
chain 2: B4 chain 1 with Y232L, W234G, S237D, A296S, A328L, I330E, K354D, R433H, K437E
chain 3: B4 chain 3
Molecule B8 returned a Kd in the experiment with FcgRIIIa F [13] of 1.3 nM.

B9: GpH7-TA7/GpH7-TA50/GpL16-k0 (antibody)
chain 1: B4 chain 1
chain 2: B4 chain 1 with Y232L, W234G, S237D, A296S, A328L, I330E, K332G, K354D, R433H, K437E
chain 3: B4 chain 3
As for B9, binding in the experiment with FcgRIIIa F [15] was put at a Kd of 3.4 nM.

For the origin of these results see patent US10766960 (dated 2020).
